{"source": "paper PMC2112731", "target": "F-actin in a glycerinated muscle fiber (rabbit (endogenous in psoas muscle fiber)) (UniProt P68135)", "experiment": "fluorescence intensity of a labeled muscle fiber"}
{"substance": "phalloidin-(fluorescein isothiocyanate) FITC complex (peptide)", "values": [{"measurement": "stoichiometry N (mol of the toxin per mol of actin)", "result": 1}]}
